Test results: the supplement of paper PMC10567573

B1: CCDC70 (parent)
chain: FSFKVSRWMGLACFRSLAASSPSI
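Further: lentivirally expressed fusions sorted by FACS into six bins by GFP to DsRed ratio, PSI derived from sequencing read proportions per bin multiplied by bin number.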

Variants of: B1
Assay: protein stability index of a GFP-peptide fusion (GPS, HEK-293T) (PSI 1-6); higher = more stable
Conditions: c terminus: a fixed tail appended
Work on FSFKVSRWMGLACFRSLAASSPSL yielded a protein stability index of 3.
For FSFKVSRWMGLACFRSLAASSPSE, the protein stability index was 1.44.
Variant FSFKVSRWMGLACFRSLAASSPSP has a protein stability index of 1.41.
With FSFKVSRWMGLACFRSLAASSPSC the protein stability index was 1.94.
FSFKVSRWMGLACFRSLAASSPSW showed a protein stability index of 3.1.
For FSFKVSRWMGLACFRSLAASSPSK, the protein stability index was 2.12.
FSFKVSRWMGLACFRSLAASSMSI showed a protein stability index of 3.36.
With FSFKVSRWMGLACFRSLAASSTSI the protein stability index was 3.71.
For FSFKVSRWMGLACFRSLAASSNSI, the protein stability index was 3.22.
For FSFKVSRWMGLACFRSLAASSYSI, the protein stability index was 2.86.
In the case of FSFKVSRWMGLACFRSLAASSVSI, the protein stability index is reported as 2.95.
With FSFKCSRWMGLACFRSLAASSPSI the protein stability index was 2.92.
For FSFKWSRWMGLACFRSLAASSPSI, the protein stability index was 2.13.
FSFKYSRWMGLACFRSLAASSPSI showed a protein stability index of 2.98.
FSFKNSRWMGLACFRSLAASSPSI showed a protein stability index of 2.78.
Variant FSFKKSRWMGLACFRSLAASSPSI has a protein stability index of 2.28.
FSFKVSRWMGLACFHSLAASSPSI showed a protein stability index of 3.52.
In the case of FSFKVSRWMGLACFASLAASSPSI, the protein stability index is reported as 3.76.
Work on FSFKVSRWMGLACFYSLAASSPSI yielded a protein stability index of 2.87.
Variant FSFKVSRWMGLACFQSLAASSPSI has a protein stability index of 5.05.
FSFKVSRWMGLACFVSLAASSPSI showed a protein stability index of 3.28.
Work on FHFKVSRWMGLACFRSLAASSPSI yielded a protein stability index of 1.33.
Variant FYFKVSRWMGLACFRSLAASSPSI has a protein stability index of 2.62.
Variant FIFKVSRWMGLACFRSLAASSPSI has a protein stability index of 3.26.
With WSFKVSRWMGLACFRSLAASSPSI the protein stability index was 2.34.
QSFKVSRWMGLACFRSLAASSPSI gave a protein stability index of 2.12.
For GSFKVSRWMGLACFRSLAASSPSI, the protein stability index was 2.57.
With MSFKVSRWMGLACFRSLAASSPSI the protein stability index was 4.47.
For FSFKVSRWMGLAKFRSLAASSPSI, the protein stability index was 1.46.
For FSFKVSRWMGLATFRSLAASSPSI, the protein stability index was 1.63.
For FSFKVSRWMGLAFFRSLAASSPSI, the protein stability index was 3.96.
For FSFKVSRWMGLASFRSLAASSPSI, the protein stability index was 2.66.
FSFKVSRWMGLACFRSLAFSSPSI gave a protein stability index of 1.36.
Work on FSFKVSRWMGLACFRSLADSSPSI yielded a protein stability index of 2.88.
Variant FSFKVSRWMGLACFRSLATSSPSI has a protein stability index of 3.93.
Work on FSFKVSRWMGLACFRSLAPSSPSI yielded a protein stability index of 2.09.
For FSFKVSRWMGLACFRSLAYSSPSI, the protein stability index was 3.36.
FSFKVSRWMGLACFRSLAWSSPSI gave a protein stability index of 3.71.
FSFKVSRWMGLACFRSLHASSPSI gave a protein stability index of 2.37.
FSFKVSRWMGLACFRSLYASSPSI showed a protein stability index of 3.5.
With FSFKVSRWMGLACFRSLMASSPSI the protein stability index was 2.78.
In the case of FSFKVSRWMGLACFRSLAASSPHI, the protein stability index is reported as 1.65.
FSFKVSRWMGLACFRSLAASSPYI gave a protein stability index of 2.1.
For FSFKVSRWMGLACFRSLAASSPLI, the protein stability index was 4.22.
Work on FSFKVSRWMGLACFRSLAASSPVI yielded a protein stability index of 2.53.
Work on FSFKVSRWMGLACWRSLAASSPSI yielded a protein stability index of 1.7.
Work on FSFKVSRWMGLACGRSLAASSPSI yielded a protein stability index of 3.57.
For FSFKVSRWMGLACSRSLAASSPSI, the protein stability index was 1.61.
For FSFKVSRWMGLACMRSLAASSPSI, the protein stability index was 2.21.
With FSFKVMRWMGLACFRSLAASSPSI the protein stability index was 2.17.
FSFKVDRWMGLACFRSLAASSPSI gave a protein stability index of 2.35.
FSFKVNRWMGLACFRSLAASSPSI gave a protein stability index of 3.31.
With FSFKVERWMGLACFRSLAASSPSI the protein stability index was 3.26.
For FSFKVSRWMGLACFRSLAASQPSI, the protein stability index was 2.23.
For FSFKVSRWMGLACFRSLAASAPSI, the protein stability index was 1.99.
FSFKVSRWMGLACFRSLAAYSPSI showed a protein stability index of 2.74.
Work on FSFKVSRWMGLACFRSLAALSPSI yielded a protein stability index of 3.27.
In the case of FSFKVSRWMGLACFRSLAAASPSI, the protein stability index is reported as 3.7.
FSFKVSRWMGLACFRSLAAHSPSI gave a protein stability index of 1.81.
FSFKVSRWMGLACFRSLAARSPSI showed a protein stability index of 4.31.
Variant FSFKVSRWMGLACFRSLAAMSPSI has a protein stability index of 2.2.
FSFKVSRWMGLACFRSLAAPSPSI gave a protein stability index of 1.35.
FSFKVSRWMGLACFRSLAAFSPSI gave a protein stability index of 4.72.
With FSFKVSRWCGLACFRSLAASSPSI the protein stability index was 3.07.
FSFKVSRWAGLACFRSLAASSPSI gave a protein stability index of 2.28.
In the case of FSFKVSRWFGLACFRSLAASSPSI, the protein stability index is reported as 2.95.
Work on FSFKVSRWLGLACFRSLAASSPSI yielded a protein stability index of 4.57.
Variant FSFKVSRWMGLACFRSAAASSPSI has a protein stability index of 1.7.
Work on FSFKVSRWMGLACFRSSAASSPSI yielded a protein stability index of 1.87.
Work on FSFKVSRWMGLACFRSKAASSPSI yielded a protein stability index of 2.45.
With FSFKVSDWMGLACFRSLAASSPSI the protein stability index was 2.9.
For FSFKVSEWMGLACFRSLAASSPSI, the protein stability index was 3.4.
Variant FSFKVSNWMGLACFRSLAASSPSI has a protein stability index of 2.53.
FSFKVSYWMGLACFRSLAASSPSI gave a protein stability index of 2.52.
FSFKVSMWMGLACFRSLAASSPSI gave a protein stability index of 2.33.
For FSFKVSWWMGLACFRSLAASSPSI, the protein stability index was 3.02.
Work on FSFWVSRWMGLACFRSLAASSPSI yielded a protein stability index of 4.77.
In the case of FSFCVSRWMGLACFRSLAASSPSI, the protein stability index is reported as 3.35.
Work on FSFDVSRWMGLACFRSLAASSPSI yielded a protein stability index of 3.56.
FSFVVSRWMGLACFRSLAASSPSI gave a protein stability index of 3.11.
For FSFKVSRSMGLACFRSLAASSPSI, the protein stability index was 2.08.
Variant FSFKVSRRMGLACFRSLAASSPSI has a protein stability index of 1.81.
Variant FSFKVSRCMGLACFRSLAASSPSI has a protein stability index of 2.07.
In the case of FSFKVSRIMGLACFRSLAASSPSI, the protein stability index is reported as 2.9.
Variant FSFKVSRPMGLACFRSLAASSPSI has a protein stability index of 2.4.
Variant FSPKVSRWMGLACFRSLAASSPSI has a protein stability index of 2.57.
FSDKVSRWMGLACFRSLAASSPSI gave a protein stability index of 1.63.
For FSCKVSRWMGLACFRSLAASSPSI, the protein stability index was 2.74.
FSSKVSRWMGLACFRSLAASSPSI showed a protein stability index of 2.6.
Variant FSEKVSRWMGLACFRSLAASSPSI has a protein stability index of 2.21.
For FSHKVSRWMGLACFRSLAASSPSI, the protein stability index was 1.87.
Work on FSFKVSRWMKLACFRSLAASSPSI yielded a protein stability index of 3.17.
FSFKVSRWMSLACFRSLAASSPSI showed a protein stability index of 2.98.
For FSFKVSRWMYLACFRSLAASSPSI, the protein stability index was 4.12.
